Measured values: patent WO2009082624A2 (dated 2009)

Columns and labels:
[1] = target: T1, human IL-23 (p19/p40 heterodimer), recombinant (human, UniProt Q9NPF7 20-189; P29460 23-328); experiment: cell-based or functional assay
T1 sequence 1: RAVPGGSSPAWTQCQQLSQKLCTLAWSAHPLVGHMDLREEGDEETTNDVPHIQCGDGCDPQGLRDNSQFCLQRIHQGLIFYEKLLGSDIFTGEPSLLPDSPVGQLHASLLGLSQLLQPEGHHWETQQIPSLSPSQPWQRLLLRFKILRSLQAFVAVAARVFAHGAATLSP
T1 sequence 2: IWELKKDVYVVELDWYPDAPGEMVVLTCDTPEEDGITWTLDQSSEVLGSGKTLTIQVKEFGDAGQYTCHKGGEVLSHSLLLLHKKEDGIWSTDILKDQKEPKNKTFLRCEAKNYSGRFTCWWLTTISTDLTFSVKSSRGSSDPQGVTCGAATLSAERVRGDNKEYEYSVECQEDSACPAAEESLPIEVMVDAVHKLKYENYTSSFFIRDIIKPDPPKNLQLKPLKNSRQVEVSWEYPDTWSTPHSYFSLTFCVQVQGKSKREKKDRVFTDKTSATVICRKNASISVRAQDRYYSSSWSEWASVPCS

[2] = target: T1, human IL-23 (p19/p40 heterodimer), …; experiment: SPR off-rate analysis (Biacore T-100), IL-23 immobilised, 1:1 model
[3] = target: T1, human IL-23 (p19/p40 heterodimer), …; experiment: SPR (Biacore T-100), IL-23 immobilised on CM5, bivalent interaction model

IC50, IL-23-mediated IL-17A/A production in murine splenocytes [1]: 26 nM
koff [2]: ~0.0004 s⁻¹
Kd [3]: 0.8 nM
B1: human IL-23R-Fc soluble receptor (ZymoGenetics) (Fc fusion)
chain: GITNINCSGHIWVEPATIFKMGMNISIYCQAAIKNCQPRKLHFYKNGIKERFQITRINKTTARLWYKNFLEPHASMYCTAECPKHFQETLICGKDISSGYPPDIPDEVTCVIYEYSGNMTCTWNAGKLTYIDTKYVVHVKSLETEEEQQYLTSSYINISTDSLQGGKKYLVWVQAANALGMEESKQLQIHLDDIVIPSAAVISRAETINATVPKTIIYWDSQTTIEKVSCEMRYKATTNQTWNVKEFDTNFTYVQQSEFYLEPNIKYVFQVRCQETGKRYWQPWSSPFFHKTPETVPQVTSKAFQHDTWNSGLTVASISTGHLTSDNRGDIG
